Target: SroF^Phi3T, master repressor of phage Phi3T (recombinant) (Bacillus phage Phi3T)
Test: BLI

**Q.** For “Sar^Phi3T, shorter annotation lacking the first 10 amino acids (recombinant) (natural protein)”, which Kd is on record?
**A.** 21.7 nM

From article doi:10.1101/2025.11.27.690993
